The text below walks through data of article PMC4132743 (Nucleic Acids Research, 2014).

The target of the series is T1, DnaT Y127A/W128A (Escherichia coli K12, UniProt P0A8J2 1-179, Y127A;W128A).
T1 sequence: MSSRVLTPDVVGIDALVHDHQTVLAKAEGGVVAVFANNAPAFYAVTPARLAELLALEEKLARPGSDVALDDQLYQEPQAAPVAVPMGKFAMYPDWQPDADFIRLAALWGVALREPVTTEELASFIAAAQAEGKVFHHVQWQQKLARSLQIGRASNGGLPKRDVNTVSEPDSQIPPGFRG
In words: fluorescence polarization; almost no detectable binding; Buffer A: 20 mM Tris-HCl pH 7.5, 40 mM NaCl, 5% v/v glycerol, 20 C; FPA 200 nM 5'-FAM DNA, Hill fit; EMSA 30 min at 20 C, gels in 0.5x TBE at 4 C. The note with it: protein: recombinant; tags: His-MBP removed by TEV; label: 5'-FAM. In general terms: Polarisation of emitted light reports the rotation of a fluorescent probe.

For the molecule TTTTTTTTTTTTTTTTTTTTTTTTTTTTTT (ssDNA) [5F-dT30], the binding result is “no binding”.
